Here are results for 1 protein from article doi:10.1101/2025.04.23.649697, “Biomass-derived Lignin Nanoparticles for the Sustained Delivery of Vascular Endothelial Growth Factor-C” (bioRxiv, 2025).

This data set deals with the molecule itself. The data set is described as follows: SEC; HiLoad 26/600 Superdex 200 pg in PBS, after IMAC; peaks identified using BSA as a molecular weight marker. In general terms: In gel filtration, larger molecules generally elute earlier.

B1: mature Vascular Endothelial Growth Factor C (dNdC-hVEGF-C-H6) (ligand, human, UniProt P49767 112-227, looked up)
chain: AHYNTEILKSIDNEWRKTQCMPREVCIDVGKEFGVATNTFFKPPCVSVYRCGGCCNSEGLQCMNTSTSYLSKTLFEITVPLSQGPKPVTISFANHTSCRCMSKLDVYRQVHSIIRR
notes: VEGF-C, human, dNdC form (called mature VEGFC); secreted with the BiP signal peptide of the vector pMT-Ex; SEC gave dimeric and monomeric species; The dimeric peak was collected and used for nanoparticle loading and the bioassays; also called mature VEGFC; purified mature VEGFC; not shown: His6 (H6 in the construct's name)
What is called stoichiometry N is a count of units in the complex or per binding partner. As to B1, the “stoichiometry N” value came to 2.
